# Laboratory results taken from US7597894B2, “Compositions and methods employing alternative reading frame polypeptides for the treatment of cancer and infectious disease” (Dendreon Corporation, priority 2003, dated 2009).
# How the values were obtained:
# [1] = test system: hHER-2/EL4 (E.HER2) tumor cells; test: Survival after hHER-2/EL4 (E.HER2) tumor challenge of mice pre-immunized with antigen-pulsed dendritic cells; format: in vivo, mouse; details: C57BL/6 mice pre-immunized i.p. with antigen-pulsed activated DC, challenged i.p. with hHER-2/EL4 (E.HER2) cells
# Method: (§1) The hHER-2/E14 tumor cell line was generated by transfecting the mouse EL4 thymoma cell line (ATCC No. TIB-39, Rockville, Md.) with full-length human HER-2 cDNA cloned into the MIRB vector. The hHER-2/B16 tumor cell line was generated by transfecting the mouse B16 melanoma cell line (ATCC No. CRL-6322, Rockville, Md.) with full-length human HER-2 cDNA cloned into the pCR3.1 vector.
# (§2) Enriched activated dendritic cells (DCs) were prepared as described (Laus et al., Nature Biotechnology 18:1269-1272 (2000)). Briefly, enriched preparations of activated DC were prepared by incubating female C57BL/6 spleen cells in tissue culture flasks for 2 h at 37° C., removing non-adherent cells, and subsequently culturing the remaining adherent cells for two days in the presence of 1 μM ionomycin (Sigma, St. Louis, Mo.). DC obtained in this manner were pulsed by sixteen hour co-culture with each of the indicated HER-2 ARF polypeptide pools or HER-2 fusion proteins in 1 μM ionomycin, washed two times and injected intraperitoneally (i.p.) into the C57BL/6 mice (2.5×10^5 cells per mouse). Two weeks after the last immunization, mice were challenged with a single i.p. injection of hHER-2/EL4 cells or hHER-2/B 16 cells in 0.1 ml PBS. Mice were monitored daily and their survival recorded.
# The effect of pre-immunization with HER-2-ARF polypeptide-pulsed activated DC on suppression of in vivo growth of HER-2-expressing autologous tumors was evaluated in a mouse animal model system. The results of two independent experiments using hHER-2/EL4 cells are shown in FIGS. 1A and 1B, respectively. The results of two independent experiments using hHER-2/B 16 tumor cells are shown in FIGS. 2A and 2B, respectively.
# [2] = test system: CD8 T cell hybridoma B6-H9.B7; test: T cell hybridoma assay (stimulation of CD8 T cell hybridoma B6-H9.B7 by Ag-pulsed cells); format: cell-based, mouse; details: untransfected EL-4 tumor cells pre-pulsed with the peptide as stimulators
# Method: CD8 T cell hybridoma B6-H9.B7, specific for the protective Arf peptide 3h, was isolated from mice immunized with HER-2-derived Arf pool B peptides. FIG. 8D. This hybridoma was stimulated by untransfected EL-4 tumor cells pre-pulsed with the peptide 3h as well as an E.HER2 tumor transfectant in the absence of any externally added Arf peptide.
# Arf epitope-specific MHC class I-dependent CD8^+ T cell hybridoma B6.H9-B7 was obtained by fusing thymoma cell line BWZ.36CD8 with splenocytes of mice immunized with HER-2-derived Arf pool B3 peptides. Sanderson et al., Int. Immunol. 6:369-376 (1994). The T cell hybridoma assay was performed as described previously. Karttunen et al., Proc. Natl. Acad. Sci. USA. 88:3972-3976 (1991). Briefly, 10^5 hybridoma cells were incubated in 0.2 ml micro-wells with designated washed Ag-pulsed APC. Stimulation of B6.H9-B7 was visualized after incubation with chlorophenol red B-galactoside (expressed in relative light units). FIG. 8E.
# [3] = test system: hHER-2/B16 (B16.HER2) tumor cells; test: Survival after hHER-2/B16 tumor challenge of mice pre-immunized with antigen-pulsed dendritic cells; format: in vivo, mouse; details: C57BL/6 mice pre-immunized with antigen-pulsed DC, challenged with hHER-2/B16 cells
# Method: as §1
# as §2, with “Two weeks after the last immunization, mice were challenged with a single i.p. injection of hHER-2/EL4 cells or hHER-2/B 16 cells in 0.1 ml PBS.” left out
# The effect of pre-immunization with HER-2-ARF polypeptide-pulsed activated DC on suppression of in vivo growth of HER-2-expressing autologous tumors was evaluated in a mouse animal model system. […]
# [4] = test system: mPAP/B16 (B16.mPAP) tumor cells; test: Survival after challenge with B16 cells expressing an irrelevant antigen (mouse PAP); format: in vivo; details: C57BL/6 mice pre-immunized with antigen-pulsed DC, challenged with B16 cells expressing irrelevant antigen mouse PAP
Molecule,protection against tumor challenge / survival (prevention of in vivo tumor growth) [1],stimulation of CD8 T cell hybridoma B6-H9.B7 [2],protection against tumor challenge / survival [3],protection against tumor challenge / survival [4]
VHRHRHEAAAPCQSR (Made in a lab from synthetic material) [3g],strong protective capabilities,–,–,–
RHEAAAPCQSRDPPG (Made in a lab from synthetic material) [3h],strong protective capabilities,stimulated,–,–
"HER500rGM-CSF: recombinant fusion protein of hHER-2 extracellular and intracellular domain sequences, OVA octapeptide and rat GM-CSF; positive control (protein, listed as Homo sapiens) MRAAPLLLARAASLSLGFLFLLFFWLDRSVLAKELARGAASTQVCTGTDMKLRLPASPETHLDMLRHLYQGCQVVQGNLELTYLPTNASLSFLQDIQEVQGYVLIAHNQVRQVPLQRLRIVRGTQLFEDNYALAVLDNGDPLNNTTPVTGASPGGLRELQLRSLTEILKGGVLIQRNPQLCYQDTILWKDIFHKNNQLALTLIDTNRSRACHPCSPMCKGSRCWGESSEDCQSLTRTVCAGGCARCKGPLPTDCCHEQCAAGCTGPKHSDCLACLHFNHSGICELHCPALVTYNTDTFESMPNPEGRYTFGASCVTACPYNYLSTDVGSASIINFEKLGAGGMVHHRHRSSSTRSGGGDLTLGLEPSEEEAPRSPLAPSEGAGSDVFDGDLGMGAAKGLQSLPTHDPSPLQRYSEDPTVPLPSETDGYVAPLTCSPQPEYVNQPDVRPQPPSPREGPLPAARPAGATLERAKTLSPGKNGVVKDVFAFGGAVENPEYLTPQGGAAPQPHPPPAFSPAFDNLYYWDQDPPERGAPPSTFKGTPTAENPEYLGLDVPAAAPTRSPNPVTRPWKHVDAIKEALSLLNDMRALENEKNEDVDIISNEFSIQRPTCVQTRLKLYKQGLRGNLTKLNGALTMIASHYQTNCPPTPETDCEIEVTTFEDFIKNLKGFLFDIPFDCWKPVQKGAPPPPAHHHHHH",prevented tumor growth,–,protection,no protection
"HER300: recombinant fusion protein with 289 amino acids of HER-2 membrane distal extracellular domain and OVA257-264; negative control (protein, listed as Homo sapiens) MRAAPLLLARAASLSLGFLFLLFFWLDRSVLAKELARGAASTQVCTGTDMKLRLPASPETHLDMLRHLYQGCQVVQGNLELTYLPTNASLSFLQDIQEVQGYVLIAHNQVRQVPLQRLRIVRGTQLFEDNYALAVLDNGDPLNNTTPVTGASPGGLRELQLRSLTEILKGGVLIQRNPQLCYQDTILWKDIFHKNNQLALTLIDTNRSRACHPCSPMCKGSRCWGESSEDCQSLTRTVCAGGCARCKGPLPTDCCHEQCAAGCTGPKHSDCLACLHFNHSGICELHCPALVTYNTDTFESMPNPEGRYTFGASCVTACPYNYLSTDVGSASIINFEKLAAPTRSPNPVTRPWKHVDAIKEALSLLNDMRALENEKNEDVDIISNEFSIQRPTCVQTRLKLYKQGLRGNLTKLNGALTMIASHYQTNCPPTPETDCEIEVTTFEDFIKNLKGFLFDIPFDCWKPVQKGAPPPPAHHHHHH",had little effect,–,–,–
